Measured values reported in the nanobody polyreactivity screen of Harvey et al. (2022).

Test: yeast display, Sf9 membrane polyspecificity reagent, FACS + sequencing; frameworks hold sequencing errors
Method in brief: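 A synthetic nanobody library was expressed on Saccharomyces cerevisiae BJ5465 by galactose induction for 36–48 hours. The library was stained for 1 hour at 4 °C with 10% biotinylated, detergent-solubilized Sf9 membrane reagent and enriched with streptavidin microbeads before FACS. Low and high (top ~1%) gates were set on anti-HA fluorescence for expression and streptavidin fluorescence for reagent binding, and each polyreactivity label reflects the gate of origin.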

Sequence	polyreactivity (PSR sort gate)
QVQLVESGGGLVQAGGSLRLSCAASGSTFIKNAMGWYRQAPGKERELVAAIPWGGGSTYYADSVKGRFTISRDNAKNTVYLQMNSLKPEDTAVYYCAAGNDIWRYYGYDYWGQGTQVTVSS	low polyreactivity
QVQLVESGGGLVQAGGSLRLSCAASGSTFILKAMGWYRQAPGKERELVATISSSDTSPYYADSVKGRFTISRDTAKNTVYLQMNSLKPEDTAVYYCNADYYTTSYLQRVYHYGVDYDYWGQGTQVTVSS	low polyreactivity
QVQLVESGGGLVQAGGSLRLSCAASGSTFILNAMGWYRQAPGKERELVATISSSDTSTYYADSVKGRFTISRDNAKNTVYLLMNSLKPDDTAVYFCNADYYTTSYLQRVYHYGVEYDYWGQGTQVTLSS	low polyreactivity
QVQLVESGGGLVQAGGSLRLSCAASGSTFIPNAMGWYRQAPGKERELVAAITYRGGRTYYADSVKGRFTISRDNAKYTVYLQLNSLKPEDTAVYYCAADFWYNQVRFYYWGQGTQVTVSS	high polyreactivity
QVQLVESGGGLVQAGGSLRLSCAASGSTFIPYAMGWYRQAPGKERELVARITWSDTSTYYADSVKGRFTISRDNAKNTVYLHMNSVKPEDTAVYYCAAKEFSLARGARPRYYYWGQGTQVTVSS	high polyreactivity
QVQLVESGGGLVQAGGSLRLSCAASGSTFIRYAMGWYRQAPGKERELVAAITWRGGSTYYADSVKGRFTISRDNAKNTVYLQMNSLKPEDTAVYYCAARDRDTRNYYWGQGTQVTVSS	high polyreactivity
QVQLVESGGGLVQAGGSLRLSCAASGSTFISNTMGWYRQAPGKERELVAAITRTGGRTYYADSVKGRFTISRDNAKNTVYLQMNSLKPEDTAVYYCARYGGYWSLKYDYWGQGTQVTVSS	high polyreactivity
QVQLVESGGGLVQAGGSLRLSCAASGSTFISYAMGWYRQAPGKERELVAAISSGGGRTSYADSVKGRFTISRDNAKNTVYLQMNSLKPEDTAVYYCNTKKLPYAEGYWGQGTQVTVSS	low polyreactivity
QVQLVESGGGLVQAGGSLRLSCAASGSTFISYAMGWYRQAPGKEREMVAAISWDGGSTYYADSVKGRFTISRDNAKNTVYLQMNSLKPEDTAVYYCNAEYDGAAGRYEYWGPGTQVTVSS	low polyreactivity
QVQLVESGGGLVQAGGSLRLSCAASGSTFIWNGMGWYRQAPGKERELVAAITSSSTNYADSVKGRFTISRDNAKNTVYLQMNSLKPEDTAVYYCAAEIYPLGSLRLGPGEYDHWGQGTQVTVSS	low polyreactivity
QVQLVESGGGLVQAGGSLRLSCAASGSTFIYNALGWYRQAPGKERELVAAISSGGSTYYADSVKGRFTISRDNAKNSVYLQMNSLKPEDTAVYYCAAKGFPRSGYPYQAQHMYYWGQGTQVTVSS	low polyreactivity
QVQLVESGGGLVQAGGSLRLSCAASGSTFIYYAMGWNRQAPGKERELVDSISRSGGSTYYADSVKGRFTISRDNAKNTVYLQMNSLKPEDTAVYYCARAYRSSFNYWGQGTQVTVSS	high polyreactivity
QVQLVESGGGLVQAGGSLRLSCAASGSTFIYYAMGWYRQAPGKEREFVAAISYRGGSTYYADSVKGRFTISRDNAKNTVYLQMNSLKPEDTAVYYCAASYRKWNDYWGQGTQVNVSS	high polyreactivity
QVQLVESGGGLVQAGGSLRLSCAASGSTFIYYAMGWYRQAPGKERELVAAISGSGASTYYADSVKGRFTISRDNAKNTVYLQMNSLKPEDTAVYYCHFYRWRGYDYWGQGTQVTVSS	high polyreactivity
QVQLVESGGGLVQAGGSLRLSCAASGSTFIYYTMGWYRQAPGKERELVAASSWSGGNTYYADSVKGRFTISRDNAKNTVYLQMNSLKPEDTAVYYCAATRFSQYDWGQGTQVTVSS	high polyreactivity
QVQLVESGGGLVQAGGSLRLSCAASGSTFIYYVKGWYRQAPGNERELVAAISGRTGSTYYADSVKGRFTISRDNAKNTVYLQMNSLTPEDTAVYYCAKRGFLYWDHVSGFYRYDYWGQGTQVTVSS	low polyreactivity
QVQLVESGGGLVQAGGSLRLSCAASGSTFKAYAMGWYRQAPGKERELVAAITKSGGRTYYADSVKGRFTISRDNAKNTVYLQMISLKPEDTAVYYCAAVFRPDSSAYRYYYWGQGTQVTVSS	high polyreactivity
QVQLVESGGGLVQAGGSLRLSCAASGSTFKAYAMGWYRQAPGKERELVAAITKSGGRTYYADSVKGRFTISRDNAKNTVYLQMNSLKPEDTAVYYCAAVFRPDSSAYRYYYWGQGTQVTVSS	high polyreactivity
QVQLVESGGGLVQAGGSLRLSCAASGSTFKAYAMGWYRQAPGKERELVAAITNSDGDTYYADSVKGRFTISRDNAKNTVYLQMNSLKAEDTAVYYCNALYFLKKLYDYWGQGTQVTVSS	low polyreactivity
QVQLVESGGGLVQAGGSLRLSCAASGSTFKAYVMGWYRQAPGKERELVAVISRSGGTTYYADSVKGRFTISRDNAKNTVYLQMNSLKPEDTAVYYCAAQWRYQYPESLESYYWGQGTQVTVSS	high polyreactivity
QVQLVESGGGLVQAGGSLRLSCAASGSTFKFYAMGWYRQAPGKERELVAAISRSGGSTYYADSVKGRFTLSRDNAKNTVYLQMNSLKPEDTAGYYCAAERTLKSDYWGQGTQVTVSS	high polyreactivity

Sequence	polyreactivity (PSR sort gate)
QVQLVESGGGLVQAGGSLRLSCAASGSTFKFYGVGWYRQAPGKERQLVASITSSSGPTYYADSVKGRFTISRDNAKYTVYLQLNSLKPEDPAVYDCNKAWRRYWLRGDYWGQGKQVTVSS	low polyreactivity
QVQLVESGGGLVQAGGSLRLSCAASGSTFKIYAMGWYRQAPGKERELVAAITRGGSTNYADSVKGRFTISRDNAKNTVYLQMNSLKPEDTAVYYCAASYWYRRYGTYTYDYWGQGTQVTVSS	high polyreactivity
QVQLVESGGGLVQAGGSLRLSCAASGSTFKIYAMGWYRQAPGKEREVVARITGRGGSTYYADSVKGRFTISRDNAKNTVYLQMNSLKPEDTAVYYCAAAKRYYSEMYWGQGTQVTVSS	high polyreactivity
QVQLVESGGGLVQAGGSLRLSCAASGSTFKRNAMGWYRQAPGKERELVAAISFRGGSTYYADSVKGRFTISRDNAKNTVYLQMNSLKPEDTAVYYCAAGIYRIRGGGISFDYWGQGTQVTVSS	high polyreactivity
QVQLVESGGGLVQAGGSLRLSCAASGSTFKRYAMGWYRQAPGKERELVAAISRRGGSTYYADSVKGRFTISRDNAKNTVYLQMNSLKPEDTAVYYCAARIASHLYYYWGQGTQVTVSS	high polyreactivity
QVQLVESGGGLVQAGGSLRLSCAASGSTFKRYAMGWYRQAPGKERELVASISQRGGTTYYADSVKGRFTISRDNAKNTVDLQMNSLKPEDTAVYYCAKGFGWTRTIYDYWGQGTQVTVSS	high polyreactivity
QVQLVESGGGLVQAGGSLRLSCAASGSTFKRYARGWYRQAPGKEREFVAGISSRGSRTYYADSVKGRFTISRDNAKNTVYLQMNSLKPEDTAVYYCAVSGNHVSPPYGYWGQGTQVTVSS	high polyreactivity
QVQLVESGGGLVQAGGSLRLSCAASGSTFKRYSMGWYRQAPGKERELVASISGRGGGTYYADSVKGRFTISRDNEKNTVYLQMNSLIPEDTAVYYCAAYGRYYGFDYWGLGTQVTVSS	high polyreactivity
QVQLVESGGGLVQAGGSLRLSCAASGSTFKWYAMGWYRQAPGKERELVAAISSRGGSTYYADSVKGRFTISRDNAKNTVYLQMNSLKPEDTAVYYCNALVRPQWSYNDFDYWGQGTQVTVSS	high polyreactivity
QVQLVESGGGLVQAGGSLRLSCAASGSTFKWYAMGWYRQAPGKERELVAGISWTGASTYYADSVKGRFTISRDNAKNTVYLQMNSLKPDDTAVYYCAADRTYFALLWTGRARYDYWGQGTQVTVSS	high polyreactivity
QVQLVESGGGLVQAGGSLRLSCAASGSTFKWYGMGWYRQAPGKERELVATINYSSSTTYYADSVKGRFTISRDNAKNTVYLQMNSLKPEDTAVYYCAKGVYWGTKSTYDYWGQGTQVTVSS	high polyreactivity
QVQLVESGGGLVQAGGSLRLSCAASGSTFKYNTMGWYRQAPGKERELVATISTGGSTYYADSVKGRFTISRDNAKNTVYLQMNSLKPEDTAVYYCAADGARRNTYRYDYWGQGTQVTVSS	low polyreactivity
QVQLVESGGGLVQAGGSLRLSCAASGSTFKYYAMGWYRQAPGKERELVARISSGGNTKYADSVKGRFTISRDNAMNTVYLQMNSLKPEDTAVYYCAAGYPGVGYAYDYWGQGTQVTVSS	high polyreactivity
QVQLVESGGGLVQAGGSLRLSCAASGSTFKYYPMGWYRQAPGKERELVAAITSTGSTNYADSVKGRFTISRDNAKNTVYLQMNSRKPEDTAVYYCAKKYFYSTYYSWGHGTQVTVSS	low polyreactivity
QVQLVESGGGLVQAGGSLRLSCAASGSTFLDYAMGWYRQAPGKDRELVAAISTDDSSTYYADSVKGRFTISRDNAKNTVYLQMNSLKPEDTAVYYCAADDRDWVNFDYWGQGTQVTVSS	low polyreactivity
QVQLVESGGGLVQAGGSLRLSCAASGSTFLEYARGWSRQAPGKERELVATITGGGGTNYADSVKGRFTISRDNAKNTVYLQMNSLKPEETAVYYCAADYGGAYEYGYWGQGTQVTVSS	low polyreactivity
QVQLVESGGGLVQAGGSLRLSCAASGSTFLFYAMGWYRQAPGKERELVAAISSSGTSTYYADSVKGRFTISRDNAKNTVYLQMNSLKPEDTAVYYCAAVDPYERYVYWGQGTQVTVSS	low polyreactivity
QVQLVESGGGLVQAGGSLRLSCAASGSTFLFYDMGWYRHAAGKERELVAAIRWSGGSTYADSVKGRFTISRDNAKNTVYLQMNSLKPVDTAVYYCATTYRPTFRRHYNYWGQGTQVTVSS	low polyreactivity
QVQLVESGGGLVQAGGSLRLSCAASGSTFLGYTMGWSRQAPGKERELVATITRRGGRTSYADSVKGRFTISRDNAKNTVYLQMNSLKPEDTAVYYCATDSKRSSVPWNTYDYWGQGTQVTVSS	high polyreactivity
QVQLVESGGGLVQAGGSLRLSCAASGSTFLLNAMGWSRQAPGKDRELVAAITWTGGSTYYADSVKGRFTISRDNAKNTVYLQMNILKPEDTAVYYCAAETYVTSYDYWGQGTQVTVSS	low polyreactivity
